Assay results as given in publication doi:10.1101/2024.02.21.581285 (bioRxiv, 2024).

Target: the molecule itself
Assay: cryo-EM structure

B1: D. melanogaster copia Gag protein (natural protein)
chain: not shown
With B1 the “stoichiometry N” value was 540 monomers.
